Test results from PMC6819821, “Interaction of Cholesterol With the Human SLC1A5 (ASCT2): Insights Into Structure/Function Relationships” (Frontiers in Molecular Biosciences, 2019).

B1: human SLC1A5 (ASCT2), endogenous in HeLa cells (natural protein, human (endogenous in HeLa), UniProt Q15758 1-541, looked up)
chain: MVADPPRDSKGLAAAEPTANGGLALASIEDQGAAAGGYCGSRDQVRRCLRANLLVLLTVVAVVAGVALGLGVSGAGGALALGPERLSAFVFPGELLLRLLRMIILPLVVCSLIGGAASLDPGALGRLGAWALLFFLVTTLLASALGVGLALALQPGAASAAINASVGAAGSAENAPSKEVLDSFLDLARNIFPSNLVSAAFRSYSTTYEERNITGTRVKVPVGQEVEGMNILGLVVFAIVFGVALRKLGPEGELLIRFFNSFNEATMVLVSWIMWYAPVGIMFLVAGKIVEMEDVGLLFARLGKYILCCLLGHAIHGLLVLPLIYFLFTRKNPYRFLWGIVTPLATAFGTSSSSATLPLMMKCVEENNGVAKHISRFILPIGATVNMDGAALFQCVAAVFIAQLSQQSLDFVKIITILVTATASSVGAAGIPAGGVLTLAIILEAVNLPVDHISLILAVDWLVDRSCTVLNVEGDALGAGLLQNYVDRTESRSTEPELIQVKSELPLDPLPVPTEEGNPLLKHYRGPAGDATVASEKESVM
notes: ASCT2 (SLC1A5), sodium-dependent neutral amino acid antiporter, endogenous in HeLa cells; Detected with anti-hASCT2 (rabbit, Millipore) after formaldehyde cross-linking of intact cells; also called hASCT2; source: endogenous, intact HeLa cells (cross-linked in the cells, then total lysate)
B2: recombinant hASCT2-6His WT (natural protein, human)
chain: MVADPPRDSKGLAAAEPTANGGLALASIEDQGAAAGGYCGSRDQVRRCLRANLLVLLTVVAVVAGVALGLGVSGAGGALALGPERLSAFVFPGELLLRLLRMIILPLVVCSLIGGAASLDPGALGRLGAWALLFFLVTTLLASALGVGLALALQPGAASAAINASVGAAGSAENAPSKEVLDSFLDLARNIFPSNLVSAAFRSYSTTYEERNITGTRVKVPVGQEVEGMNILGLVVFAIVFGVALRKLGPEGELLIRFFNSFNEATMVLVSWIMWYAPVGIMFLVAGKIVEMEDVGLLFARLGKYILCCLLGHAIHGLLVLPLIYFLFTRKNPYRFLWGIVTPLATAFGTSSSSATLPLMMKCVEENNGVAKHISRFILPIGATVNMDGAALFQCVAAVFIAQLSQQSLDFVKIITILVTATASSVGAAGIPAGGVLTLAIILEAVNLPVDHISLILAVDWLVDRSCTVLNVEGDALGAGLLQNYVDRTESRSTEPELIQVKSELPLDPLPVPTEEGNPLLKHYRGPAGDATVASEKESVM
notes: human ASCT2 (SLC1A5), wild type, construct pPICZB-ASCT2-6His; no cleavage of the tag is described; In the cross-linking the protein was detected with anti-hASCT2; also called purified WT hASCT2; SLC1A5; source: P. pastoris X-33 (pPICZB-ASCT2-6His), solubilised in C12E8, purified (Ni-NTA, PD-10)

Key:
[1] = target: the molecule itself; experiment: cross-linking; intact HeLa cells treated with 0.75% formaldehyde for 10 min at room temperature, stopped with 125 mM glycine; 50 ug total lysate on 8% SDS-PAGE, immunoblot with anti-hASCT2
[2] = target: the molecule itself; experiment: cross-linking; purified WT hASCT2 in detergent, without or with 0.75 mg CHEMS, 1 or 4% formaldehyde in 20 mM Tris HCl pH 9.0 for 2 min at 23°C, stopped with 1.25 M glycine; 8% SDS-PAGE, immunoblot with anti-hASCT2

Protein	stoichiometry N [1]	stoichiometry N [2]
B1	3	
B2		3
